Consider 2 proteins from publication PMC7135905 (Biochemical Journal, 2020).

Assay in all cases: native MS
Data set [1] concerns the molecule itself.
Data set [2] deals with the molecule itself. This is another data set of the same source.
Data set [3] concerns the molecule itself. This is another data set of the same source.
Data set [4] concerns the molecule itself. This is another data set of the same source.
Data set [5] deals with the molecule itself. This is another data set of the same source.
Data set [6] concerns the molecule itself. This is another data set of the same source.

Broadly, the stoichiometry N is a count of units in the complex or per binding partner.

Substitutions are numbered along the chain they refer to. In names and notes the source's numbering stands. Like-named read-outs stand apart in the source and are kept apart here.

B1: CtRocCOR (RocCOR construct of the Roco protein from Chlorobium tepidum, a.a. 412-946) (domain or fragment)
chain: DNPLESPPPEIVKQGKEAVRQYFQSIEEARSKGEALVHLQEIKVHLIGDGMAGKTSLLKQLIGETFDPKESQTHGLNVVTKQAPNIKGLENDDELKECLFHFWDFGGQEIMHASHQFFMTRSSVYMLLLDSRTDSNKHYWLRHIEKYGGKSPVIVVMNKIDENPSYNIEQKKINERFPAIENRFHRISCKNGDGVESIAKSLKSAVLHPDSIYGTPLAPSWIKVKEKLVEATTAQRYLNRTEVEKICNDSGITDPGERKTLLGYLNNLGIVLYFEALDLSEIYVLDPHWVTIGVYRIINSSKTKNGHLNTSALGYILNEEQIRCDEYDPAKNNKFTYTLLEQRYLLDIMKQFELCYDEGKGLFIIPSNLPTQIDNEPEITEGEPLRFIMKYDYLPSTIIPRLMIAMQHQILDRMQWRYGMVLKSQDHEGALAKVVAETKDSTITIAIQGEPRCKREYLSIIWYEIKKINANFTNLDVKEFIPLPGHPDELVEYKELLGLEKMGRDEYVSGKLEKVFSVSKMLDSVISKEERNKER
As to B1, the “percent dimer (dimer/monomer ratio)” value in data set [1] was about 87%; in data set [2] it was about 20%; in data set [3] it was about 38%; in data set [4], about 26%; in data set [5] it was about 97%; in data set [6] it was about 90%. Besides, the “stoichiometry N” value in data set [5] was 2.

B2: CtRocCOR L487A mutant (domain or fragment)
chain: B1 chain with L76A
With B2, the “percent dimer (dimer/monomer ratio)” value is about 11% in data set [2], about 85% in data set [3], about 96% in data set [4] and about 100% in data set [6].
